Source: US6808877B2, “Ligands for FPR class receptors that induce a host immune response to a pathogen or inhibit HIV infection” (priority 2000, dated 2004)
“Also recorded” adds a separate entry of the source.

T1: FPRL1 (Homo sapiens, UniProt P25090)
T1 construct: expressed in transfected cells; host or cells: HEK 293
T1 sequence (P25090 1-351): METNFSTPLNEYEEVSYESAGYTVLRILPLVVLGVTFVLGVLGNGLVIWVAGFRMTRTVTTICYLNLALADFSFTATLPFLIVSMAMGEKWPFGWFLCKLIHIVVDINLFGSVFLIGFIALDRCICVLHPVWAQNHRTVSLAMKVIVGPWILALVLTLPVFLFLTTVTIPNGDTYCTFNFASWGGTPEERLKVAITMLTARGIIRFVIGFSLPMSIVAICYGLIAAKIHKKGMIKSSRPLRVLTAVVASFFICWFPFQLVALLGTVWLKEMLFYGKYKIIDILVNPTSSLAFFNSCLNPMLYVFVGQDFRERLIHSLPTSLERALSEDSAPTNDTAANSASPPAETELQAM

T2: FPR (Homo sapiens, UniProt P21462)
T2 construct: H. Ali and R. Snyderman (Duke University); host or cells: RBL-2H3 rat basophilic leukemia cells
T2 sequence (P21462 1-350): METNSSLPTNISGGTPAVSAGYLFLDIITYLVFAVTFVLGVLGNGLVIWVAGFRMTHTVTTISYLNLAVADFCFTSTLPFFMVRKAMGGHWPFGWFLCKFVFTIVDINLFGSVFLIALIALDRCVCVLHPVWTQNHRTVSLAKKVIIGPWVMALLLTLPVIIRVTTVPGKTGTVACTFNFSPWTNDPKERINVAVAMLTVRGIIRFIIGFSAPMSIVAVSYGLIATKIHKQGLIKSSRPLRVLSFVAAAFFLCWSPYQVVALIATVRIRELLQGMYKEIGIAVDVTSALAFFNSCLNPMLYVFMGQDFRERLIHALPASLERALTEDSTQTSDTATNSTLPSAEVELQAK

B1: SAA: serum amyloid A, recombinant, purchased from Pepro Tech (protein, UniProt P0DJI8 19-122, looked up)
Serum amyloid A-1 protein: RSFFSFLGEAFDGARDMWRAYSDMREANYIGSDKYFHARGNYDAAKRGPGGAWAAEVITDARENIQRFFGHGAEDSLADQAANEWGRSGKDPNHFRPAGLPEKY
B2: MIP-1α: chemokine that activates multiple receptors including CCR5 (protein, UniProt P10147 24-92, looked up)
C-C motif chemokine 3: SLAADTPTACCFSYTSRQIPQNFIADYFETSSQCSKPGVIFLTKRSRQVCADPSEEWVQKYVSDLELSA
B3: MIP-1β: chemokine, CCR5 agonist (protein)
chain: APMGSDPPTACCFSYTARKLPRNFVVDYYETSSLCSQPAVVFQTKRSKQVCADPSESWVQEYVYDLELN
B4: RANTES: chemokine that activates multiple receptors including CCR5 (protein, UniProt P13501 24-91, looked up)
C-C motif chemokine 5: SPYSSDTTPCCFAYIARPLPRAHIKEYFYTSGKCSNPAVVFVTRKNRQVCANPEKKWVREYINSLEMS

Columns and labels:
monocytes [1] = assay: Ca2+ mobilization in monocytes (Fura-2); type: cell-based, human
Experimental: (§1) Calcium mobilization was measured by incubating 2×10^7/ml cells in loading medium (DMEM, 10% FBS) with 5 μM Fura-2 AM (Molecular Probes, Eugene, Oreg.) for 30 min at room temperature in the dark. The dye-loaded cells were washed 3 times with loading medium and resuspended in saline buffer [138 mM NaCl, 6 mM KCl, 1 mM CaCl2, 10 mM HEPES (pH 7.4), 5 mM Glucose, 0.1% BSA] at a concentration of 1×10^6/ml. The cells were then transferred into quartz cuvettes (2 ml) which were placed in a luminescence spectrometer (LS-50B, Perkin-Elmer, Beaconsfield, England). Stimulants at different concentrations were added in a volume of 20 μl to each cuvette at the indicated time points. The ratio of fluorescence at 340 and 380 nm wavelength was calculated using a FL WinLab program (Perkin-Elmer).
Calcium mobilization was assayed by incubating 2×10^7/ml of monocytes, neutrophils, FPRL1 or FPR transfectants in loading buffer containing 138 mM NaCl, 6 mM KCl, 1 mM CaCl2, 10 mM HEPES (pH 7.4), 5 mM glucose, 0.1% BSA with 5 μM Fura-2 (Sigma) at 37° C. for 30 min. The dye-loaded cells were washed and resuspended in fresh loading buffer. The cells were then transferred into quartz cuvettes (10^6 cells in 2 ml) which were placed in a luminescence spectrometer LS50 B (Perkin-Elmer Limited, Beaconsfield, England). Stimulants at different concentrations were added in a volume of 20 μl to the cuvettes at indicated time points. The ratio of fluorescence at 340 and 380 nm wavelength was calculated using the FL WinLab program (Perkin-Elmer).

CCR5 [2] = assay: CCR5 serine phosphorylation in monocytes (anti-phosphoserine IP, anti-CCR5 immunoblot); type: cell-based, human; settings: for MIP-1β-induced CCR5 phosphorylation after preincubation with PKC inhibitor: then MIP-1β 1 min; for serine phosphorylation of CCR5 / time of maximal CCR5 phosphorylation: human monocytes; for serine phosphorylation of CCR5: 37° C.
Experimental: Monocytes were isolated by counter-flow elutriation from the peripheral blood of normal donors (NIH Clinical Center, Transfusion Medicine Department, Bethesda, Md.) and enriched for mononuclear cells by using counter-flow elutriation. The purity of the cell preparations was examined by morphology after cytospin, and was >90%. The cells were stimulated with different concentrations of chemokines for indicated time periods at 37° C. and lysed for 20 min on ice with periodic mixing in lysis buffer (1% Triton X-100, 20 mM, Tris-HCl pH 8.0, 137 mM NaCl, 15% glycerol, 5 mM EDTA) containing phosphatase and protease inhibitors (1 mM phenylmethylsulfonyl fluoride, 5 μg/ml aprotinin, 5 μg/ml leupeptin, 1 mM sodium orthovanadate, 1 mM EGTA). Cell lysates were precleared with 30 µl of washed Protein-A sepherose beads (Pharmacia Biotech. Piscataway, N.J.), 1 μg of polyclonal anti-phospho-serine antibody (Zymed Laboratory Inc. South San Francisco, Calif.) was added to 200 μg cell lysates diluted with 2×immunoprecipitation (IP) buffer (1×buffer contains 1%Triton X-100, 10 mM Tris-HCl pH 7.4, 137 mM NaCl, 1 mM EDTA, 1 mM EGTA, 0.2 mM sodium orthovanadate, 0.2 mM PMSF, 0.5% NP-40). The reaction mixture was incubated at 4° C. overnight under constant rocking. The immune complex was captured by adding 50 μl of washed Protein-A sepharose beads (25 μl packed beads) and incubation of the reaction mixture at 4° C. for additional 2 hours. The beads were spun down (10 seconds at 14,000 rpm), the pellets were washed 3 times with ice-cold IP buffer, resuspended in 30 μl of 2×Laemmli sample buffer (126 mM Tris-HCl, 20% Glycerol, 4% SDS, 0.005% bromophenol blue with or without addition of 1% 2-mercaptoethanol, Novex, San Diego, Calif.) and boiled for 5 min to elute the immune complex. After electrophoresis on 4-12% SDS-PAGE precast gel (Novex), the proteins were transferred to Immobilon P membranes (Millipore, Bedford, Mass.). The membranes were blocked in freshly prepared PBS containing 3% dry milk 2 h, then were incubated with 1 μg/ml of polyclonal anti-CCR5 antibody (Millenium Biotechnology, Ramona, Calif.) overnight at 4° C. followed by washing 3 times with PBS containing 0.05% Tween 20. The membranes were incubated with a horse radish-peroxidase conjugated goat anti-rabbit IgG (1:5000) (Sigma, St. Louis, Mo.) in PBS containing 3% dry milk for 1 hour at room temperature with agitation. After washing 3 times with PBS-0.05% Tween 20, the membranes were incubated with Super Signal Chemiluminescent Substrate Stable Peroxide Solution (Pierce, Rockford, Ill.) for 1 min, and exposed to BIOMAX-MR film (Eastman Kodak Company, Rochester, N.Y.).
Monocytes stimulated with different concentrations of stimulants for indicated time periods at 37° C. were lysed for 20 min on ice with periodic mixing in lysis buffer [1% Triton X-100, 20 mM Tris-HCl (pH 8.0), 137 mM NaCl, 15% glycerol, 5 mM EDTA] containing phosphatase and protease inhibitors (1 mM phenylmethylsulfonyl fluoride, 5 μg/ml aprotinin, 5 μg/ml leupeptin, 1 mM sodium orthovanadate, 1 mM EGTA). Cell lysates were precleaned with 30 μl of washed Protein A Sepharose beads (15 μl packed beads) at 4° C. for 1 hour and 1 μg of polyclonal anti-phosphoserine antibody was added to 200 μg cell lysates diluted with 2×immunoprecipitation (IP) buffer [1×: 1% Triton X-100, 10 mM Tris-HCl (pH 7.4), 137 mM NaCl, 1 mM EDTA, 1 mM EGTA, 0.2 mM […], 0.2 mM PMSF, 0.5% NP-40]. The reaction mixture was incubated at 4° C. overnight under constant rocking. The immunecomplex was captured by adding 50 μl of washed Protein A sepharose beads (25 μl packed beads) and incubating the reaction mixture at 4° C. for an additional 2 hours. […]

monocytes [3] = assay: Ca2+ mobilization of monocytes in response to chemokines after preincubation (heterologous desensitization); type: cell-based, human; settings: staurosporine 2.5 ng/ml 30 min
Experimental: Calcium mobilization was measured by incubating monocytes (2×10^7/ml) in loading medium (DMEM, 10% FCS) with 5 μM Fura-2 AM (Molecular Probes, Eugene, Oreg.) for 30 min at room temperature in the dark. The dye-loaded cells were washed 3 times and resuspended in saline buffer (138 mM NaCl, 6 mM KCl, 1 mM CaCl2, 10 mM Hepes pH 7.4, 5 mM glucose, 0.1% BSA). The cells were then transferred into quartz cuvettes (2×10^6 cells in 2 ml) which were placed in a luminescence spectrometer (LS-50B, Perkin-Elmer, Beaconsfield, UK). Stimulants at different concentrations were added in a volume of 20 μl to each cuvette at the indicated time points. The ratio of fluorescence at 340 and 380 nm was calculated using a FL-WinLab program (Perkin Elmer). To examine the effect of fMLP, monocytes were preincubated with 10^−6 M fMLP or with medium alone for 60 min at 37° C. The cells were thoroughly washed and then were stained with Fura-2 for the calcium mobilization desensitization. The results are representative of at least three experiments performed.
as §1

monocytes [4] = assay: Monocyte chemotaxis, 48-well micro-chemotaxis chamber; type: cell-based, human; settings: 37° C., 30 min
FPRL1 = target: T1, FPRL1; type: cell-based; settings: FPRL1/293 cells; 100 ng/ml, 37° C., 30 min
FPR = target: T2, FPR; assay: Migration of ETFR cells; type: cell-based; settings: ETFR cells
CCR5 [5] = type: cell-based, human; settings: HOS/CD4/CCR5 cells co-expressing FPR
CCR5 [6] = assay: Surface expression of CCR5 on monocytes by flow cytometry; type: cell-based, human; settings: FITC-anti-CCR5 2D7
Experimental: The change of surface expression of CCR5 on monocytes was monitored by FACS analyses (courtesy of L. […] The cells were then washed twice with DPBS containing 2% BSA and fixed with 1% Paraformaldehyde (Sigma). The fluorescence was measured by flow cytometer (Becton Dickinson, San Jose, Calif.). Results are presented as the percentage of cells stained with anti-CCR5 antibody.

| Molecule | Ca2+ mobilization (monocytes [1]) | serine phosphorylation of CCR5 (CCR5 [2]) | time of maximal CCR5 phosphorylation (CCR5 [2]) [min] | expression of CCR5 on the cell surface (CCR5 [6]) | other results |
| --- | --- | --- | --- | --- | --- |
| MCP-1: chemokine | significant Ca^2+ mobilization | – | – | – | – |
| CN[C@@H]1C[C@H]2O[C@@](C)([C@@H]1OC)n1c3ccccc3c3c4c(c5c6ccccc6n2c5c31)C(=O)NC4 [staurosporine] | – | – | – | – | MIP-1β-induced CCR5 phosphorylation after preincubation with PKC inhibitor (CCR5 [2]; monocytes): did not affect; V3 peptide-induced CCR5 phosphorylation after pretreatment with PKC inhibitor (CCR5 [2]; monocytes, staurosporine 2.5 ng/ml 30 min, then V3 peptide 1.5 μM 60 min): no longer significantly induced phosphorylation of CCR5; Ca2+ mobilization in response to RANTES or SDF-1α after PKC inhibitor followed by V3 peptide (monocytes [3]): almost normal Ca^2+ mobilization |
| SDF-1α | significant Ca^2+ mobilization | – | – | – | – |
| calphostin C | – | – | – | – | MIP-1β-induced CCR5 phosphorylation after preincubation with PKC inhibitor (CCR5 [2]; monocytes): little effect; fMLP-induced CCR5 phosphorylation after preincubation with PKC inhibitor (CCR5 [2]; monocytes, calphostin C 50 ng/ml 2.5 h, then fMLP 10^−6 M 60 min): markedly reduced |
| T20/DP178: synthetic peptide corresponding to a region in the C-terminus of the ectodomain of gp41 | – | significant and dose-dependent phosphorylation of CCR5 | – | – | – |
| pertussis toxin | – | – | – | – | chemotaxis response to V3 peptide after preincubation of the cells (monocytes [4]; human phagocytes, 100 ng/ml): inhibited; migration in response to W peptide after pretreatment of the cells (monocytes [4]; phagocytes, 100 ng/ml toxin): completely inhibited; W peptide induced migration after pretreatment of the cells (FPRL1): inhibited; W peptide induced migration after pretreatment of the cells (FPR): inhibited |
| B1 | – | significant and dose-dependent phosphorylation of CCR5 | – | – | – |
| B2 | induced a transient rise in Ca^2+ | rapidly phosphorylated | 1 | downregulated | phosphorylation of CCR5 (CCR5 [5]): induced an increase in phosphorylation of CCR5 |
| B3 | poor inducer of Ca^2+ flux | rapidly phosphorylated | 1 | downregulated | – |
| B4 | induced a transient rise in Ca^2+; also recorded: significant Ca^2+ mobilization | rapidly phosphorylated | 1 | downregulated | – |
